In US20200010516A1:

Target: integrin αIIbβ3 on platelets of healthy donors (UniProt P08514)
Assay: cell-based or functional assay

## ^39SRAGK-^46RIPRGDMP-^66RYH (Rho wild-type) (from UniProt P30403 408-475) (ligand)
  IC50, Platelet Aggregation: 0.0832 µM
